# Test results reported in the RNAGym collection of RNA variant scans (doi:10.1073/pnas.2313332121).
# B1: TPR t1 (parent)
# chain: GACCAAUCUGCCCUCAGAGCUCGAGAACAUCUUCGGAUGCAGAGGAGGCAGGCUUCGGUGGCGCGAUAGCGCCAACGUCCUCAACCUCCAAUGCAUCCCACCACAUGAUGAUGCCUGAAGAGCCUUGGUUUUUUG
# Variants of: B1
# Test: polymerase ribozyme fitness, log enrichment relative to wild type (log ratio); higher = more active; in vitro selection for triplet polymerase activity
# Procedure, shortened: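 Fitness measures genotype enrichment against wild-type enrichment on a logarithmic scale, with inverse-variance-weighted averaging of replicates. The logarithm is base 2, and genotypes were kept only with ≥10 input reads and ≥1 read per output in Illumina sequencing. The sequenced libraries came from one triplicate in vitro selection round, including frozen incubation at −7 °C, of PCR-built, transcribed mutant libraries of each subunit of a heterodimeric triplet polymerase ribozyme.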
row,Variant,polymerase ribozyme fitness (log ratio)
1,G39U G52A G63U,-2.37
2,A37U A43C,-1.99
3,G39A U55A G77C A84C,-2.23
4,A37U A41U C88U,-2.75
5,G39C U54A,-0.125
6,C40A G48C A121C U129G,-0.25
7,A37U G48A G61C A105U A111U,-6.69
8,G39U A41U,-2.97
9,G39U G117U A118C,-4.29
10,A37U C40U A50C G51C A74U U109A U131G,-5.36
11,G39A C72G G113A,-2.17
12,U38C G45A U54A A83C G120U,-0.856
13,G39A G63C C72A,-4.54
14,C40A G63U C104A G120A U130G,-5.07
15,C40G A41U G45U,-5.41
16,G39A G110A,-1.31
17,G39C G48U G57C,-1.92
18,C40A G42U G45U C56G C73U,-4.17
19,A37G G69U C99A C114A,-3.09
20,A37G G113C G135A,-2.17
21,G39A G48C A50U C94U C114G,-4.57

row,Variant,polymerase ribozyme fitness (log ratio)
1,G39U A84C G122A C123A C124A,0.979
2,G39U C56A A84C G113U,-4.13
3,A37G C114A,-1.28
4,U38A G120A,-0.255
5,U38G G52A C62U C114A,-3.2
6,G39U G63U,-1.63
7,G39U U92C C115U A119U,-3.57
8,U38A C101U G117C,-4.18
9,G39C C114U,-1.75
10,C40G G44A C98U,-5.49
11,G39A C56U C85U A111U,-3.84
12,A37G U132C,-1.86
13,A37U A111U,-3.3
14,U38C C64A,-6.78
15,G39A U54A A83U U92G,-4.73
16,A37G U55A C73U A83C A90U U125A,-2.61
17,G39U G47C G57U A84C,-3.89
18,G39U A84U,-1.03
19,G39C C89U C115G C123A,-4.39
20,C40A C89U G117A A121G,-0.101
21,G39A A66U C123U,-0.175

row,Variant,polymerase ribozyme fitness (log ratio)
1,A37U G51U G77A A91U,-6.95
2,G39U C53A G63U U126A,-5.66
3,G39C G71C C86U,-2.13
4,A37U A105C,-3.01
5,G39C G69A C115U G120A,-6.08
6,C40G C64U U81A,-2.3
7,G39C G48U C73A A100U,-2.09
8,C40G C79U C101U G113U,-4.09
9,G39U C86A U106A,-2.01
10,A37U G51U G60C C85U U96A G113A,-4.21
11,G39U G69U C73A C124U,0.671
12,U38C C40U A46U U55A C73U,-3.3
13,G39U A46G C115G,-3.39
14,C40A G61A C73U C88U G113U,-6.64
15,C40A U59A,-1.29
16,G39A C40A G45U,-4.88
17,A37U U112A,0.71
18,A37U U96G,-0.312
19,G39A G61U,-0.116
20,U38G G69A U112A,-4.05
21,C40G G71A U125A,-2.35

row,Variant,polymerase ribozyme fitness (log ratio)
1,C40G C82U U106A,-1.73
2,G39C G63C,-1.54
3,G39A A83U,-0.65
4,G39C G110A,-1.82
5,C40G C56A G69C C115G,-6.15
6,C40A C72A U81A A119U,-3.46
7,U38G G44A G63C U96C,-2.8
8,C40A G45A,-2.54
9,G39A G51A,-2.96
10,C40G C53A C123G,0.48
11,A37U G48A G61C U116A,-4.18
12,A37U A46U,-2.98
13,A37U G47U U55G C114U,-3.49
14,G39U G51A,-3.64
15,C40G C56U G77A,-0.862
16,G39U G61A C85U,-0.878
17,G39U C62A C86A,-5.05
18,A37U A50G G52A A111G G117A,-2.93
19,C40A C70U C124U,-0.171
20,U38G G61C U96G G122A,-4.11
